Experimental data: US20240173426A1 (Regeneron, published 2024)

T1: cynomolgus FGFR3b expressed with a C-terminal myc-myc-hexahistidine tag (mfFGFR3b.mmH) (cynomolgus)
T1 construct: The name states R357G; also called REGN3521; mf FGFR3b ecto (R357G) (E23-G377;R357G).mmH
T1 chain: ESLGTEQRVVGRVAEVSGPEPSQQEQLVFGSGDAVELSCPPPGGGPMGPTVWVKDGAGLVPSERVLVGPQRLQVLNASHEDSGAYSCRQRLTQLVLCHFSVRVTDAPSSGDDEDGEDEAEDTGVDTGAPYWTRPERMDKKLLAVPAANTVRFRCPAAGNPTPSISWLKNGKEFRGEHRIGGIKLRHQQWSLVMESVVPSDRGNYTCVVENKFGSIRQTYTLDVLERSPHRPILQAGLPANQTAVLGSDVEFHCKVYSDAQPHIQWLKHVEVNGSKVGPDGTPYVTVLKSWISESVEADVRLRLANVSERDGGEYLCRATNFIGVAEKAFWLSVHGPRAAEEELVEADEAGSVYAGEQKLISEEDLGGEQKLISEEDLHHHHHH

T2: human FGFR3b expressed with a C-terminal myc-myc-hexahistidine tag (hFGFR3b.mmH) (human)
T2 construct: monomeric; also called REGN3152; monomeric human FGFR3b
T2 chain: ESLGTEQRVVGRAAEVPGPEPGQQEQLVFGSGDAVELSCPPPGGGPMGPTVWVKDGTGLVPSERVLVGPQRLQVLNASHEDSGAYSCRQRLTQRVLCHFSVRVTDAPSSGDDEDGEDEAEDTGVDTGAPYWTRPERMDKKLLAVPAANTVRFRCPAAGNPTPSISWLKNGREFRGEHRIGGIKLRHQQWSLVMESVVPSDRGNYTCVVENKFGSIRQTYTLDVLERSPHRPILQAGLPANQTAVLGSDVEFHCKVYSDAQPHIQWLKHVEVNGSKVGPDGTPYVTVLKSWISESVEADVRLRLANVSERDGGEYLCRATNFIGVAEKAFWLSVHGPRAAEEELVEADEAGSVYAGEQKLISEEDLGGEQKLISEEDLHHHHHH

T3: murine FGFR3b expressed with a C-terminal myc-myc-hexahistidine tag (mFGFR3b.mmH) (mouse)
T3 construct: monomeric; also called REGN3215; monomeric murine FGFR3b
T3 chain: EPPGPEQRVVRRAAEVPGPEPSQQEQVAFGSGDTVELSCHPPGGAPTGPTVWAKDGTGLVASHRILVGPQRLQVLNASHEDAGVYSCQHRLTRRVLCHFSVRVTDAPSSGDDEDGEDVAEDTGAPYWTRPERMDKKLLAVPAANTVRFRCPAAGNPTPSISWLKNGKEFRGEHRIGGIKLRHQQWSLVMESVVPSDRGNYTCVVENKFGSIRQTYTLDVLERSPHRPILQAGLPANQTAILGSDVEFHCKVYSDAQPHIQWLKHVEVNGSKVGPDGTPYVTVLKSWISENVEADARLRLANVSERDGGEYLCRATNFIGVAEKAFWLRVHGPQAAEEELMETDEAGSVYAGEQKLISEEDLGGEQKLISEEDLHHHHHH

T4: human FGFR3b expressed with a C-terminal murine Fc tag (hFGFR3b.mFc) (human)
T4 construct: called dimeric; also called REGN3153; dimeric human FGFR3b
T4 chain: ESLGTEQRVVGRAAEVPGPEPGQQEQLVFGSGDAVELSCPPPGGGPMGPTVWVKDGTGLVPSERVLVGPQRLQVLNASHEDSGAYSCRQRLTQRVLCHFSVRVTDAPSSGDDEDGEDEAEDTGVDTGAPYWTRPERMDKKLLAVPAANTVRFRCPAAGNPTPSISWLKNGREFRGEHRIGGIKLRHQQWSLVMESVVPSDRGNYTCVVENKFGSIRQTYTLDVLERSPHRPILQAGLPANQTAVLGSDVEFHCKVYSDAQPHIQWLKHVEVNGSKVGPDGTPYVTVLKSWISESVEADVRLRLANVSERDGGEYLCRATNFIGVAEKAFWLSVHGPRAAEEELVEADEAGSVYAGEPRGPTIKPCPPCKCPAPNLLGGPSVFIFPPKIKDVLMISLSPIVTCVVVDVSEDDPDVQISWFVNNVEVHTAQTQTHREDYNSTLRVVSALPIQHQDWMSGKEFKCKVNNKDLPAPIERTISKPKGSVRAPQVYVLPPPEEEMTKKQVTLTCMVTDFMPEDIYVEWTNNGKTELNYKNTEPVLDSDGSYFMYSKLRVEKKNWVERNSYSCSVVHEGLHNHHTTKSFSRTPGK


What was measured:
Experiment in all cases: SPR (Biacore), captured mAb, 25 C
[1] = molecular target: T5, human FGFR3c expressed with a C-terminal myc-myc-hexahistidine tag (hFGFR3c.mmH) (human, UniProt P22607 23-375)
T5 construct: monomeric; also called REGN3155; monomeric human FGFR3c
Protocol: (§1) The CM5 Biacore sensor surface was derivatized by amine coupling with a monoclonal mouse anti-human Fc monoclonal antibody (REGN2567). All Biacore binding studies were performed in a buffer composed of 0.01M HEPES pH 7.4, 0.15 M NaCl, 3 mM EDTA, 0.05% v/v Surfactant P20 (HBS-EP running buffer). […] Antibody-reagent association was monitored for 5 minutes while dissociation in HBS-EP running buffer was monitored for 10 minutes. At the end of each cycle, the anti-FGFR3 antibody capture surface was regenerated using a 10 sec injection of 20 mM phosphoric acid. All binding kinetics experiments were performed at 25° C.
(§2) The specific SPR-Biacore sensorgrams were obtained by a double referencing procedure. The double referencing was performed by first subtracting the signal of each injection over a reference surface (anti-hFc) from the signal over the experimental surface (anti-hFc-captured anti-FGFR3 antibodies) thereby removing contributions from refractive index changes. In addition, running buffer injections were performed to allow subtraction of the signal changes resulting from the dissociation of captured antibodies from the coupled anti-hFc surface. Kinetic association (kₐ) and dissociation (kd) rate constants were determined by fitting the real-time sensorgrams to a 1:1 binding model using Scrubber v2.0c curve fitting software.

[2] = molecular target: T1, cynomolgus FGFR3b expressed with a …
Protocol: as §1, §2

[3] = molecular target: T2, human FGFR3b expressed with a …
Protocol: as §1, §2

[4] = molecular target: T3, murine FGFR3b expressed with a …
Protocol: as §1, §2

[5] = molecular target: T4, human FGFR3b expressed with a …
Protocol: as §1, §2

| t½ [1] [min] | t½ [2] [min] | t½ [3] [min] | t½ [4] [min] | t½ [5] [min] | koff [1] [s⁻¹] | kon [1] [M⁻¹ s⁻¹] | koff [3] [s⁻¹] | kon [3] [M⁻¹ s⁻¹] | Binder |
| --- | --- | --- | --- | --- | --- | --- | --- | --- | --- |
| 8.77 |  | 18.8 |  |  | 0.00132 | 544000 | 0.000616 | 883000 | anti-FGFR3-hIgG1 comparator (REGN6331) (antibody, V domains shown, Human IgG1 comparator; also called COMP6331; anti-FGFR3 comparator antibody) VH: EVQLVESGGGLVQPGGSLRLSCAASGFTFTSTGISWVRQAPGKGLEWVGRIYPTSGSTNYADSVKGRFTISADTSKNTAYLQMNSLRAEDTAVYYCARTYGIYDLYVDYTEYVMDYWGQGTLVTVSS VL: DIQMTQSPSSLSASVGDRVTITCRASQDVDTSLAWYKQKPGKAPKLLIYSASFLYSGVPSRFSGSGSGTDFTLTISSLQPEDFATYYCQQSTGHPQTFGQGTKVEIKR |
|  | 50.2 |  |  |  |  |  |  |  | H4H30102P2 (antibody, human IgG4 S228P, kappa, V domains shown) VH: EVQLVESGGDLVQPGGSLRLSCAASGFTFSSYEMNWVRQAPGKGLEWVSYISNSGSTIYYADSVKGRFTISRDNAETSLYLQMNSLRAEDTAVYYCAREGWGAYCAGDCYSGFDIWGQGTMVTVSS VL: not shown |
|  | 14.8 | 18.2 | 2.4 | ≥ 1160 |  |  |  |  | H4H30066P (antibody, human IgG4 S228P, kappa, V domains shown) VH: QVQLVQSGAEVKKPGASVKVSCKVSGYTLTELSMHWVRQAPGKGLEWMGGFDPEDGEIIYAQKFQGRVTMTEDTSTDTAYMDLSSLTSEDTAVYYCATEKQQLVRKYYFYYGLAVWGQGTTVTVSS VL: not shown |
|  | 85.2 | 72.6 | 5.8 |  |  |  |  |  | H4H30108P2 (antibody, human IgG4 S228P, kappa, V domains shown) VH: QVQLVQSGAEVKKPGASVKVSCKASGYTFNSYDVNWVRQATGQGLEWMGWMNPHSGNTGYAQKFQGRVTMTRDTSTSTSYMELSSLTSEDTAVYYCARGPFSLLSAEFFQHWGQGTLVTVSS VL: not shown |
|  | 520 | 390 | 6.9 | ≥ 1160 |  |  |  |  | H4H30071P (antibody, human IgG4 S228P, kappa, V domains shown) VH: QVQLQQSGPGLVKPSQTLSLTCAISGDSVSRNSAAWNWIRQSPSSGLEWLGRTYYRSKWFYDYAISVKSRITVNPDTSKNQFSLHLNSVTPEDTAVYYCARGYGGYEDYFDYWGQGTLVTVSS VL: DIQMTQSPSSVSASVGDRVTITCRASQGISSWLAWYQQKPGKAPKLLIYGASSLQSGVPSRFSGSGSGTDFTLTISSLQPEDFATYFCQQGSSFPYTFGQGTKLEIKR |
|  | 350 | 263 | 320 | ≥ 1160 |  |  |  |  | H4H30076P (antibody, human IgG4 S228P, kappa, V domains shown) VH: EVQLVESGGGLVQPGGSLRLSCAASGFTVSSNYMSWVRQAPGKGLEWVSIIYSGGHTYYSDSVKGRFTISRHNSKNTLYLQMNSLRGGDTAVYYCARGYTSGWYGFDFWGQGTLVTVSS VL: DIQMTQSPSSVSASVGDRVTITCRASQGISTWLAWYQQKPGKAPKLLIYAASSLQSGVPSRFSGTGSGTDFTLTISSLQPEDFATYYCQQTNSFPWTFGQGTKVEIKR |
|  | 275 | 302 | 416 | ≥ 1160 |  |  |  |  | H4H30063P (antibody, human IgG4 S228P, kappa, V domains shown, Tested as whole antibody; also called anti-FGFR3b antibody H4H30063P) VH: QVQLQESGPGLVKPSETLSLTCTVSGDSINSYFWSWIRQLPGKELEWIGHIYSSGSTRYNPSLQSRVTISIDTSKNQFSLKLSSVTAADTAVYYCARGASAVDYWGQGTLVTVSS VL: EIVLTQSPGTLSLSPGERATLSCRTSQSISSGYLAWYQQKPGQAPRLLIYGASRRATGIPDRFSGSGSGTDFTLTISRLEPEDFVVYYCQQYGSSPYTFGQGTKLEIKR |

Continued, binder first:

| Binder | t½ [1] [min] | t½ [2] [min] | t½ [3] [min] | t½ [4] [min] | t½ [5] [min] | koff [1] [s⁻¹] | kon [1] [M⁻¹ s⁻¹] | koff [3] [s⁻¹] | kon [3] [M⁻¹ s⁻¹] |
| --- | --- | --- | --- | --- | --- | --- | --- | --- | --- |
| H4H30105P2 (antibody, human IgG4 S228P, kappa, V domains shown) VH: EVQLVQSGAEVKKPGESLKISCKGSGYSFTSYWIAWVRQMPGKGLEWMGIIYPGDSDTRYSPSFQGQVTMSADKSIRIAYLQWSSLKASDTAMYYCARLDYSGSWFDYWGQGTLVTVSS VL: not shown | 1.8 | 1.4 | 2.3 | 9.5 |  |  |  |  |  |
| H4H30061P (antibody, human IgG4 S228P, kappa, V domains shown) VH: EVQLVESGGGLAQPGGSLKLSCEASGFTFSDSAMHWVRQASGKGLEWVGRIRSKANSYATGYAASVKGRFTISRDDSKNMAFLEMNSLKTEDTAVYYCLRQTYGDPWGQGTLVTVSS VL: DVVMTQSPLSLSVTLGQPASISCRSSLSLVYSDGNNYLNWFQQRPGQSPRRLLYKVFNRDSGVPDRFSGSGSGTDFTLKISRVEAEDVGVYYCMQGTHWPWTFGQGTKVEIKR | 146 | 118 | 132 |  | ≥ 1160 |  |  |  |  |
| H4H30045P (antibody, human IgG4 S228P, kappa, V domains shown) VH: QVQLVQSGAEVKKPGASVKVSCKTSGYRFVNYGFSWVRQAPGQGLEWMGWISPYNGNTNYIQNLQDRITMTTDTSTNTAYMELTNLRSDDTAVYYCATLTGVHFDYWGQGTLVTVSS VL: AIQMTQSPSSLSASVGDRVTITCRASQGIRNDLGWYQQKPGKAPNLLIFETSRLQSGVPSRFSGSGSGTDFTLTINSLQPEDFATYYCLQDYNYPWTFGQGTKVEIKR | 1.5 | 1.3 | 1.9 |  | 71.8 |  |  |  |  |
| H4H30089P2 (antibody, human IgG4 S228P, kappa, V domains shown) VH: EVQLVESGGGLVQPGGSLRLSCIVSGFIFSSYEMSWLRQAPGKGLEWISYISSSGRVIYYADSVKGRFTISRDSAKNSLYLEMNSLRAEDTAIYYCTRKWDSSGPFDFWGQGTLVTVSS VL: not shown |  | 5.2 | 4.1 | 4.9 | 608 |  |  |  |  |
| H4H30117P2 (antibody, human IgG4 S228P, kappa, V domains shown) VH: QVQLVQSGAEVKKPGSSVKVSCKASGDTFSNYVIGWVRQAPGQGLEWMGGIIPIFGTTNYAQQFQGRVTITTDESTSTAYMELSSLRSEDTAVYYCARDGNYGDYFDYWGQGTLVTVSS VL: not shown | 1.6 | 1.3 | 1.8 |  | 87 |  |  |  |  |
| H4H30095P2 (antibody, human IgG4 S228P, kappa, V domains shown) VH: QVQLVQSGVEVKKPGASVKVSCKASGYTFKFYGISWVRQAPGQGLEWMGWISVYNGKTKYAQKLQGRVTMTTDTSTSTAYMELRSLRSDDTAVYFCARDGDYESSGYPFDYWGQGTLVTVSS VL: not shown | 2.5 | 2.6 | 2.3 |  | 117 |  |  |  |  |
